First the molecules themselves.
B1: xiRB49-P125T (antibody, V domains shown)
VH: QVQLQQPGAALVKPGASVKLSCKASGYTFISYWMLWVKQRPGRGLEWIGRIDPDSGGTKYNEKFKSKATLTVDKSSSTAYMQLSSLTSEDSAVYYCAREGDYAWFAYWGQGTLVTVSA
VL: DVLMTQTPLSLPVSLGDQASISCRSSQSIVHSNGNTYLEWYLQKPGQSPKLLIYKVSNRFSGVPDRFSGSGSGTDFTLKISRVEAEDLGVYYCFQGSHVPWTFGGGTKLEIK
B2: recombinant RB49 (reRB49) (antibody, V domains shown)
VH: B1 VH with T115P
VL: B1 VL
B3: Rendomab B49 (RB49), murine mAb purified from hybridoma (antibody, V domains shown)
VH: B1 VH with T115P
VL: B1 VL

Substitutions are numbered along the chain they refer to. In names and notes the source's numbering stands. Several values for one entry are separate records, joined by “and”; a condition that tells them apart may be missing. Equal entries are not always repeated.

The Kd is a measure of binding affinity in units of concentration. Read a high Kd as a looser complex.

The target of this assay is T1, endothelin B receptor (ETB) (UniProt P24530 27-442).
T1 chain: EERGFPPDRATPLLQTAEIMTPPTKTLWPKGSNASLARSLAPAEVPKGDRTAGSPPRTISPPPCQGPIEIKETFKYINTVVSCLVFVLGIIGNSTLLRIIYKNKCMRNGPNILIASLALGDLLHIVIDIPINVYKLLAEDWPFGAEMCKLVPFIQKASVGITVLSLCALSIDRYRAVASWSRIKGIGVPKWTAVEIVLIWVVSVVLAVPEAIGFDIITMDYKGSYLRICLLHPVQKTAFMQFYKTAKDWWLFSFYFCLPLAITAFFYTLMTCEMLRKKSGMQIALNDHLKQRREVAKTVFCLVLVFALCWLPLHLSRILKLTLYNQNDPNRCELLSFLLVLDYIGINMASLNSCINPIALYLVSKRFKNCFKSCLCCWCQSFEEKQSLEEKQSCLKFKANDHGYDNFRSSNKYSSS
The assay is described as follows: FACS. (Flow cytometry measures light scatter and fluorescence of single cells or particles in a stream.)
B1 registered a Kd of 6 nM. The same measure for B2: 3.04 nM.

Turning to B3, the dissociation constant Kd was 4.19 nM and 3.5 nM.

Values taken from PMC10760395 (2023).
